Reference: article PMC3954793, “SHP-2 Binds to Caveolin-1 and Regulates Src Activity via Competitive Inhibition of CSK in Response to H2O2 in Astrocytes” (PLoS ONE, 2014)
Ends that are not written are not given here.

Legend:
recombinant CSK protein = target: T1, recombinant CSK protein ( (human CSK cloned for the …, UniProt P41240 1-450)); assay: bead-based flow cytometric binding assay; caveolin-1 (1–50) peptide conjugated to carboxyl beads with EDC; incubated with recombinant CSK or SHP-2 protein (1–10 µg) for 1 h at RT; detected with anti-CSK or anti-SHP-2 and fluorescent secondary antibody; conditions: both partners purified
T1 construct: CSK; the in-house construct holds the protein coding region of human CSK in pGEX-6P-1

[1] = target: T2, recombinant SHP-2 protein ( (human SHP-2 cloned for the …, UniProt Q06124 1-593)); assay: as above; conditions: both partners purified
T2 construct: SHP-2 (PTPN11); the in-house construct holds the protein coding region of human SHP-2 in pGEX-6P-1
T2 sequence (looked up): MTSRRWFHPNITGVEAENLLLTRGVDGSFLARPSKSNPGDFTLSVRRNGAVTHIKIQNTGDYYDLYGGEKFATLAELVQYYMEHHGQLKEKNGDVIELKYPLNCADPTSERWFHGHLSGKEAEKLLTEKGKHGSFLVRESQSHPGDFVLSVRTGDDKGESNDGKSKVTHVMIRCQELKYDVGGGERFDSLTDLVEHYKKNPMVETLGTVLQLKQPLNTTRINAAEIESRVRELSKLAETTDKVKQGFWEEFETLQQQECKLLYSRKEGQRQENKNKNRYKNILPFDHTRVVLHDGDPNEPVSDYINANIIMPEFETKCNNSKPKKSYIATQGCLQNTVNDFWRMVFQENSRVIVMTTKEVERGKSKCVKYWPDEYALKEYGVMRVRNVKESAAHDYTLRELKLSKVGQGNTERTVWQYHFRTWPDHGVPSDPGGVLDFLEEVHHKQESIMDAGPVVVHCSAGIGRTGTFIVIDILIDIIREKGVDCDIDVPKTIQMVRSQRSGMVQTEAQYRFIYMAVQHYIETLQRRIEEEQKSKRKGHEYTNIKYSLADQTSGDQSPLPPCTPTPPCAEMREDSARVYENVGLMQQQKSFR

T1 sequence (P41240 whole entry): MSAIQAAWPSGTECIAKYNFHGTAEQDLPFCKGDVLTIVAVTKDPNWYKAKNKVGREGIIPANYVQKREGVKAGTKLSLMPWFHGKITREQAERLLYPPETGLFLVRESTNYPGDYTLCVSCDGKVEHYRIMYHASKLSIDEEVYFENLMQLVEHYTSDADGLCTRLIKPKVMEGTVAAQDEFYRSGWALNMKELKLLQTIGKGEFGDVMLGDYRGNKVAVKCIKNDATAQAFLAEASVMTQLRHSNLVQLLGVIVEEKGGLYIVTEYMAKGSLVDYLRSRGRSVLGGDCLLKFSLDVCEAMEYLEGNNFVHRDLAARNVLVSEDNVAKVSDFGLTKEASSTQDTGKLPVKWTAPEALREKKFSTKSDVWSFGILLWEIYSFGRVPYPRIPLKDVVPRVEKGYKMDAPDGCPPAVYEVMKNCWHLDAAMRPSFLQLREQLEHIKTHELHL

B1: 1–50 mer caveolin-1 peptide (peptide, UniProt Q03135 1-50, looked up)
peptide: MSGGKYVDSEGHLYTVPIREQGNIYKPNNKAMADELSEKQVYDAHTKEID
modifications: not fully specified
notes: caveolin-1 residues 1-50, fifty-amino acid-long synthetic peptide; Conjugated to carboxyl beads with EDC; also called caveolin-1 peptide (1–50); p-caveolin-1 peptide; source: synthetic peptide (PEPTRON)
binding result (recombinant CSK protein): binds
binding result [1]: binds
